Source: PMC5923308
Where two headings read alike, the source gives them in different places.

What was measured:
[1] = target: crotoxin basic subunit CB (phospholipase A2) from Crotalus durissus terrificus (Crotalus durissus terrificus) (UniProt P0CG56); assay: ELISA
[2] = target: crotoxin (CTX) from Crotalus durissus terrificus venom, heterodimer of CA and CB (Crotalus durissus terrificus)
[3] = target: crotoxin basic subunit CB (phospholipase A2) from Crotalus durissus terrificus (Crotalus durissus terrificus) (UniProt P0CG56)
[4] = target: crotoxin (CTX) from Crotalus durissus terrificus venom, heterodimer of CA and CB (Crotalus durissus terrificus); assay: SPR; Biacore T200; CTX amine-coupled on a CM5 chip; VHH 2.5 to 0.002 µM in HBS-p (10 mM HEPES, 150 mM NaCl, 3.4 mM EDTA, 0.005% Tween 20, pH 7.4); 30 µL/min, 25 °C; 1:1 Langmuir model
[5] = target: crotoxin (CTX) from Crotalus durissus terrificus venom, heterodimer of CA and CB (Crotalus durissus terrificus); assay: SPR; Biacore T200; CTX immobilised on a CM5 chip by EDC/NHS coupling (10 mM acetate, pH 5.5); VHHs injected at 2.5 to 0.002 uM in HBS-p (10 mM HEPES, 150 mM NaCl, 3.4 mM EDTA, 0.005% Tween 20, pH 7.4); 30 uL/min, 25 °C; 1:1 Langmuir model
[6] = target: crotoxin (CTX) from Crotalus durissus terrificus venom, heterodimer of CA and CB (Crotalus durissus terrificus); remark: listed apart in the source
[7] = target: crotoxin basic subunit CB (phospholipase A2) from Crotalus durissus terrificus (Crotalus durissus terrificus) (UniProt P0CG56); remark: listed apart in the source
[8] = target: crotoxin basic subunit CB (phospholipase A2) from Crotalus durissus terrificus (Crotalus durissus terrificus) (UniProt P0CG56); assay: ELISA; remark: listed apart in the source

Substance: VHH KF498604 (clone Cb-16)
- % of the unheated sample's ELISA signal after 1 h at 85 °C [1]: 85%
- reduction of plasma creatine kinase in Swiss mice 3 h after i.m. injection of CTX (1.5 µg) pre-incubated with VHH at 1:10, 1:20 and 1:40 (w/w) (46%, 63%, 78%), against CTX alone [2]: 78.8%
- reduction of LDH release from murine C2C12 myotubes after 3 h with CB (20 µg) pre-incubated with VHH at 1:2.5 (w/w), against CB alone [3]: 59.3%
- Kd [4]: 81.3 nM
- koff [5]: 0.00554 s⁻¹
- kon [5]: 68100 M⁻¹ s⁻¹
- inhibition of phospholipase activity on acyl-NBD-PC fluorescent phospholipids, toxin pre-incubated with VHH 30 min at 37 °C, toxin/VHH 1:5 to 1:40 (w/w) [6]: 80%
- inhibition of phospholipase activity on acyl-NBD-PC fluorescent phospholipids, toxin pre-incubated with VHH 30 min at 37 °C, toxin/VHH 1:5 to 1:40 (w/w) [7]: 80%
- % of the unheated sample's ELISA signal after 1 h at 85 °C [8]: > 75%
- % of the unheated sample's ELISA signal after 1 h at 95 °C [8]: 100%
